Reference: US20240181067A1, “TARGETED BIFUNCTIONAL DEGRADERS AND METHODS USING SAME” (YALE UNIVERSITY, priority 2021, published 2024)

Molecular target: streptavidin AF488 (Streptomyces avidinii, UniProt P22629)
Assay: Degradation of a target protein using an LRP1 binding motif
Assay type: cell-based
Conditions: FIG. 12
Description: Some studies have been done on other bifunctional molecules comprising an LRP1 binding motif depicted in FIG. 2 and a biotin Target binding motif, wherein these bifunctional molecules also noncovalently bind streptavidin (FIG. 11).

streptavidin AF488, sequence (P22629 25-183): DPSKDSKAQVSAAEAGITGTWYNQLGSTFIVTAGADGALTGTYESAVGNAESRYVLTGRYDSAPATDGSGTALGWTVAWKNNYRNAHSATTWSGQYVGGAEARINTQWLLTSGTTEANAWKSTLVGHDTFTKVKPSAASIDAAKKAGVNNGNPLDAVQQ

Ac.Ac.Biotin Angiopep-2: "the Ac.Ac.Biotin Angiopep-2 mediated degradation of streptavidin AF488"
degradation of streptavidin AF488: mediated degradation of streptavidin AF488
